The values below come from US11890352B2, “Plectin-targeted liposomes/PARP inhibitor in the treatment of cancer” (University of Virginia Patent Foundation, priority 2018, dated 2024).

The conditions of series [1]: cited from earlier work.
The test system of the next series is pancreatic cancer. To be noted: clinical study; cited from earlier work.
For series [2] the following is noted: unlabeled liposomes; cited from earlier work.
In series [3] the target is T1, cell surface plectin on ovarian cancer cells (SKOV3, OVCAR8) (human, UniProt Q15149 1-4684).
T1 construct: whole, on cells; Endogenous plectin mislocalized to the cell surface; also called Plectin-1
T1 sequence (Q15149 whole entry): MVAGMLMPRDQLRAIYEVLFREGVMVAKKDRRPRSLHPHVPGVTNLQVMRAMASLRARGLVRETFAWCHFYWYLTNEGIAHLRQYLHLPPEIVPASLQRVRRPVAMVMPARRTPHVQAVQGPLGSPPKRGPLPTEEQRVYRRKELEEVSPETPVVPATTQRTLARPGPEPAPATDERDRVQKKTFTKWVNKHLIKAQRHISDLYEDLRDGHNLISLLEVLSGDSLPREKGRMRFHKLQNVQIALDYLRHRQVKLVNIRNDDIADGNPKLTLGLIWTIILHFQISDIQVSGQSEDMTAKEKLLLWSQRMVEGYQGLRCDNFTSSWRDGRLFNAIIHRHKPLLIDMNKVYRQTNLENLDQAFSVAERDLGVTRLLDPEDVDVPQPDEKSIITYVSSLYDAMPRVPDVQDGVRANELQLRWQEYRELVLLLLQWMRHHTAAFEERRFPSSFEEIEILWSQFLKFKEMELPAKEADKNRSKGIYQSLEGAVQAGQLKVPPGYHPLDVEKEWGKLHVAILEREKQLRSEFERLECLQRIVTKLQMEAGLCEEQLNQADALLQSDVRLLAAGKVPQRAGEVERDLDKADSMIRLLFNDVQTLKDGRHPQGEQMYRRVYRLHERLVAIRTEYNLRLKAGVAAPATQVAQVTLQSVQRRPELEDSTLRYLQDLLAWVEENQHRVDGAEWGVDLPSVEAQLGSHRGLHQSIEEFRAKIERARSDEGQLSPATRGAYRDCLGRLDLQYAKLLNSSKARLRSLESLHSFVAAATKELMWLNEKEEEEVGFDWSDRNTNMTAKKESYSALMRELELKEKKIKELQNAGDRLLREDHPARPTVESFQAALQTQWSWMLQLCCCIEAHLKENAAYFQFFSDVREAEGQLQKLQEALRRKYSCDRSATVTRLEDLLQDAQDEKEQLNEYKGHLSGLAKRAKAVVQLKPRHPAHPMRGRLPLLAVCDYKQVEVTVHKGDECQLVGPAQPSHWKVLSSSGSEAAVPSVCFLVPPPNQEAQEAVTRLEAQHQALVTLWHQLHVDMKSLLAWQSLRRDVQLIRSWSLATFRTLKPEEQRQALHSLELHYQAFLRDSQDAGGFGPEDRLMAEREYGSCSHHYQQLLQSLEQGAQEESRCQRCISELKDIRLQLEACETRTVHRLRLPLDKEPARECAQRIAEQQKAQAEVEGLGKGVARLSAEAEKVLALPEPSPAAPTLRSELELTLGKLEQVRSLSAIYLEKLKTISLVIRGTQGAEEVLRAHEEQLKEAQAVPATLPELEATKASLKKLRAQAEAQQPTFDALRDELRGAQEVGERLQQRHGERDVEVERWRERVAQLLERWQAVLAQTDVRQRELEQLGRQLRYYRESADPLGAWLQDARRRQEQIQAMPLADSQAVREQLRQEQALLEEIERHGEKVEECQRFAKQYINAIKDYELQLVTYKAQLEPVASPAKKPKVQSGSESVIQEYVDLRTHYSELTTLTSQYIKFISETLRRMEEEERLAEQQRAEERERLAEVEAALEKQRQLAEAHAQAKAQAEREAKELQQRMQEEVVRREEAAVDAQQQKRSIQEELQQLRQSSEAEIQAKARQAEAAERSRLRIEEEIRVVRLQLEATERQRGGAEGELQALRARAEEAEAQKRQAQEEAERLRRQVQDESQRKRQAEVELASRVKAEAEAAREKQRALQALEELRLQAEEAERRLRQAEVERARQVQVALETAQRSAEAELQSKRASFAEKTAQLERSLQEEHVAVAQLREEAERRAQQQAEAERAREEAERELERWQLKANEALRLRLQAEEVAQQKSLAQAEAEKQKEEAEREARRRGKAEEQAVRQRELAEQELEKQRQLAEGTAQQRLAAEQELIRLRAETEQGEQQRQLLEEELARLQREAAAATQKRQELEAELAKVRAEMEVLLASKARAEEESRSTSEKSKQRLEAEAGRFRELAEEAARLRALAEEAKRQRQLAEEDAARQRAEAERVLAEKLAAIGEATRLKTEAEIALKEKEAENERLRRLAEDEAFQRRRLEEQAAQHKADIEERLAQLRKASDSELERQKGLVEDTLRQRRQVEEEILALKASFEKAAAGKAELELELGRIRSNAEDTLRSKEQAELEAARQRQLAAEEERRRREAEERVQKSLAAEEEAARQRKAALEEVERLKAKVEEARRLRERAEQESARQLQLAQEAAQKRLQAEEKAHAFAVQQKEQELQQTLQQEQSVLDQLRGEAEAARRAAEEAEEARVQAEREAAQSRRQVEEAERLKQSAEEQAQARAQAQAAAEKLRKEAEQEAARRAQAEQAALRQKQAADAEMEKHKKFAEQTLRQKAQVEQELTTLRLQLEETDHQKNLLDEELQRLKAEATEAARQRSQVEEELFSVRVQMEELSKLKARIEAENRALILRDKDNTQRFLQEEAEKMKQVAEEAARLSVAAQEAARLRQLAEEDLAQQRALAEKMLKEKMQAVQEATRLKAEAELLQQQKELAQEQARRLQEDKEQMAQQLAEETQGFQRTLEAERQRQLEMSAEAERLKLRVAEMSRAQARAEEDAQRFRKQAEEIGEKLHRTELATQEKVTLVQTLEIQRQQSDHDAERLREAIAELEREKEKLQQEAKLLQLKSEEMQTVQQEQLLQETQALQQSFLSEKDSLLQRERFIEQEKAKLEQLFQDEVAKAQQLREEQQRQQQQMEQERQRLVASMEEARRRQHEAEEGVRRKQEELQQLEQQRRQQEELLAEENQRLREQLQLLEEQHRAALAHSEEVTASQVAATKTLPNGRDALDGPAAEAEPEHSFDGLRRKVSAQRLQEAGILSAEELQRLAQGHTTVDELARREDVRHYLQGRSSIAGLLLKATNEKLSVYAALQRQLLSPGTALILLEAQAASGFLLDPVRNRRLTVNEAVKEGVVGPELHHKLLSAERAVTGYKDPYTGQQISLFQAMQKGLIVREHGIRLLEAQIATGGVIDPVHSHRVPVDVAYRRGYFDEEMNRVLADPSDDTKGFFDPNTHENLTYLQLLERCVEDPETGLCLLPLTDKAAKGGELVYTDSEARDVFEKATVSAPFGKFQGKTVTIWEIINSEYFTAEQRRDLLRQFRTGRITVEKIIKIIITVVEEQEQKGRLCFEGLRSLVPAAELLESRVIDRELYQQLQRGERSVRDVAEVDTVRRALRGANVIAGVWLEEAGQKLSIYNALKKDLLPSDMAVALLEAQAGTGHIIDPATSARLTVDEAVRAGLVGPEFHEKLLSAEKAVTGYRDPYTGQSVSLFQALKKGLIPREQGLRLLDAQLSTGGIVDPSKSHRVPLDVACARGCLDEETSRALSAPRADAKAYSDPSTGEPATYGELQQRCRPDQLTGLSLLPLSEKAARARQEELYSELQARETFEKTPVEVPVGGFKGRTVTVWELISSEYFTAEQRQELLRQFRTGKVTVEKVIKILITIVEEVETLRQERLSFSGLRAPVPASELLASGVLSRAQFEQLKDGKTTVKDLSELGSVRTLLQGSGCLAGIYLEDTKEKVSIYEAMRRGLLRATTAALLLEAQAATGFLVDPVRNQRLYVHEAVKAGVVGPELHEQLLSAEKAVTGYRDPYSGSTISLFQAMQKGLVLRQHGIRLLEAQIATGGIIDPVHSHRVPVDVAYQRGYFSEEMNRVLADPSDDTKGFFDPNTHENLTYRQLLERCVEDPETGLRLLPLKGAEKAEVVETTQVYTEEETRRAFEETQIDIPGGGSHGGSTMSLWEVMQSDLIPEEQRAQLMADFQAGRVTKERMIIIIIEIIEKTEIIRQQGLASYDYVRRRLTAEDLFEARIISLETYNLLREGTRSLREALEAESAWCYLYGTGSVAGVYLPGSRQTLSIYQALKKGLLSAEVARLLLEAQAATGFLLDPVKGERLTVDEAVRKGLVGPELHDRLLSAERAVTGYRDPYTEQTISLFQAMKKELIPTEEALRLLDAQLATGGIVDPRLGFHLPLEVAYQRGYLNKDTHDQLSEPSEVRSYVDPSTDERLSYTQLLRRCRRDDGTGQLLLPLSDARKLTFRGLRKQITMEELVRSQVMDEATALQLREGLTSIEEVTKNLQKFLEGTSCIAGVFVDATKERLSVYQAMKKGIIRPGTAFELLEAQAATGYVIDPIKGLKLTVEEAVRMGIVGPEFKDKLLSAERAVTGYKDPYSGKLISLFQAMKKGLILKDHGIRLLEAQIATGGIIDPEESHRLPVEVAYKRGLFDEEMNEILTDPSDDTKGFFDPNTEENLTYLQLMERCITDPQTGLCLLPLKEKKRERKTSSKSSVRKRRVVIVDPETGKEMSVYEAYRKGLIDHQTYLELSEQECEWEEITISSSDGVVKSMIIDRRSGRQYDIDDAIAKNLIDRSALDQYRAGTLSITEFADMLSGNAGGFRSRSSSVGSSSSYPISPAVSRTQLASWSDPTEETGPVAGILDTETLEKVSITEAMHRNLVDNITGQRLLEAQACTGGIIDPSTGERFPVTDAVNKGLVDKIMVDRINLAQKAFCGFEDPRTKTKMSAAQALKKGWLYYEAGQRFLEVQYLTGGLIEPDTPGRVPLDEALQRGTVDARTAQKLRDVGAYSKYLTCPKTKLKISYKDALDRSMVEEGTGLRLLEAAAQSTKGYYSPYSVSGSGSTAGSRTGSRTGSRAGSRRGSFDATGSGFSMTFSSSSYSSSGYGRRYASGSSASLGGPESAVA
Put plainly: cell binding assay on SKOV3 cells; DiR fluorescence; NCP and no-peptide liposome binding subtracted; SKOV3 cells. The protocol: (§1) FT 132, SKOV3 and OVCAR8 cells were plated in triplicate in a 96 well black plate at a concentration of 5000 cells per well. After 48 h, liposomes at concentrations ranging from […] were incubated with the three cell lines after washing the wells with PBS buffer for 1 h at 37° C. The cells were later washed with PBS and liposomal DiR intensity was measured using a fluorescent plate reader (FLUOstar omega, BMG Labtech Inc. Cary, NC). PTP liposomal binding to the three cell lines was compared with liposomes containing no peptide (background binding) and with NCP (non-specific binding). Background binding by the no peptide liposomes was subtracted from both the non-specific (NCP) and PTP liposomes. To obtain specific binding of PTP liposomes, we subtracted non-specific (NCP) binding from the total binding by the PTP liposomes.
(§2) Figure 2B: Figure 3A: FIGS. 3A-C. PTP liposomes bind to SKOV3 and OVCAR8 cells. Cell binding assay (ELISA) was carried out to assess PTP liposome association to cell surface plectin on SKOV3 and OVCAR8 cells. Liposomes (No Pep, NCP and PTP) at varying concentrations were incubated with FT132, SKOV3 and OVCAR8 cells for 1 h at 37° C. […] NCP binding was subtracted from PTP liposomes to determine specific binding of PTP liposomes to A) FT132, B) SKOV3 and C) OVCAR8 cells for 1 h at 37° C. followed by quantification of DiR using fluorescent plate reader.

The target in series [4] is T1, cell surface plectin on ovarian cancer …. Put plainly: cell binding assay on FT132 cells (healthy fallopian tube cells), DiR fluorescence at 780 nm, 1 h at 37 C; fit of the SPECIFIC curve; no unit beside the number, concentration axis in nM. The procedure:
as §1, §2

The target is the same in series [5]. Kind of series: cell binding assay on OVCAR8 cells; DiR fluorescence; NCP and no-peptide liposome binding subtracted; OVCAR8 cells. The procedure: as §1, §2
Series [6] has the same target. Kind of series: cell binding assay on FT132 cells (healthy fallopian tube cells), DiR fluorescence at 780 nm, 1 h at 37 C. The procedure:
as §1, §2

In series [7] the target is T2, recombinant his-tagged C-terminus fragment of plectin (4379-4684 aa) (human, UniProt Q15149 4379-4684).
T2 construct: range 4379-4684; also called his-tagged plectin fragment; c-terminus fragment of plectin (4379-4384 aa); not shown: his tag
T2 sequence (looked up): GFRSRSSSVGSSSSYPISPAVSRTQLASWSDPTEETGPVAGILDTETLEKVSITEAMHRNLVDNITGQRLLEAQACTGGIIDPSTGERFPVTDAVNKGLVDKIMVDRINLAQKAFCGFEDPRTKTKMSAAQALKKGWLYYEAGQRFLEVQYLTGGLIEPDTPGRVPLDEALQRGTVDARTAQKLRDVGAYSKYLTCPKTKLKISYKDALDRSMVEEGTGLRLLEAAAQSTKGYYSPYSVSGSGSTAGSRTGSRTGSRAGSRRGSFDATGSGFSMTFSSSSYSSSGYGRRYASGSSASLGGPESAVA
Put plainly: BLI (ForteBio Octet), his-tagged plectin C-terminus fragment loaded on anti-His sensors, liposomes in solution. The procedure:
Biolayer Interferometry (BLI) to Study PTP-Liposomes Binding to C-Terminus Fragment of Plectin Biolayer interferometry (BLI) was performed using ForteBio octect Red 96 system (ForteBio, Menlo Park, CA), we used recombinant C-terminus fragment of plectin (4379-4684 aa). All BLI assays were performed in black 96 well plates (Nunc F96 Micro Well plates, Thermo Fisher, Waltham, MA). The total working volume for samples or buffer was 0.2 mL per well and the rpm setting for each equilibration and loading steps was set at 1000 rpm. The association and dissociation step with C-terminus fragment of plectin and peptide-liposomes was carried out at 600 rpm. Prior to each assay, anti-his biosensor tips were pre-wetted in 0.2 mL PBS for at least 10 min followed by equilibrium with PBS for 100 seconds. Anti-his biosensors were then non-covalently loaded with his-tagged C-terminus fragment ([…]) (100 sec). Subsequently, association with No peptide, NCP (Negative Control Peptide) and PTP liposomes (40 mM) (300 sec) was be carried out. Finally, the dissociation was monitored in PBS for 600 sec.
Figure 2A: FIGS. 2A-B described plectin-targeted peptide (PTP) liposomes binding to Plectin. A) PTP peptide was conjugated to DSPE-PEG-MALEIMIDE via the thiol present on the C-terminus of the peptide. […]
For orientation: Biolayer interferometry detects binding as a change in optical thickness at a sensor tip.

For orientation: Kd means the constant that tells how readily two partners part at equilibrium. Read a low Kd as tighter binding.

Where no end group is shown, it is not given here. Side-chain parts run from the residue outwards. The star is where a group is joined. DSPE = CCCCCCCCCCCCCCCCCC(=O)OC[C@H](COP(=O)(O)OCCN*)OC(=O)CCCCCCCCCCCCCCCCC; FAM = 5(6)-carboxyfluorescein

In the case of `O=C(c1cc(Cc2n[nH]c(=O)c3ccccc23)ccc1F)N1CCN(C(=O)C2CC2)CC1` [Olaparib], in series [1], the “patients who developed myelodysplastic syndrome and acute myeloid leukemia” value is listed as “About 2%”. Moreover, the “patients with adverse side effects (neutropenia, thrombocytopenia)” value in series [1] (doses necessary to achieve PARP inhibition) is “About 10%”. Turning to `CNCc1ccc(-c2[nH]c3cc(F)cc4c3c2CCNC4=O)cc1` [Rucaparib], the patients showing benefit in the series on pancreatic cancer is given as 36%. Consider `COc1cccc2c1C(=O)c1c(O)c3c(c(O)c1C2=O)C[C@@](O)(C(=O)CO)C[C@@H]3O[C@H]1C[C@H](N)[C@H](O)[C@H](C)O1` [doxorubicin], for which the “drug loading previously reported” value in series [2] is recorded as 200 μg drug per mg of lipid.

B1: PTP liposomes (Plectin Targeting Peptide KTLLPTPGGSK(FAM)C conjugated to DSPE-PEG3400-Maleimide and displayed on DOPC/cholesterol/DSPE-PEG2000/DiR liposomes) (peptide)
peptide: KTLLPTPGGSK(FAM)C([maleimide-PEG3400-DSPE])-NH2
modifications: also: displayed on liposomes
notes: Tested only as a multivalent display on liposomes (about 110-120 nm), not as free peptide; also called Plectin Targeted Peptide; PTP-PEG3400-DSPE
For B1, the dissociation constant (Kd) was 0.12 nM in series [3], 0.06 nM in series [4] and 0.11 nM in series [5].

B2: NCP liposomes (Negative Control Peptide TALPRLNGGSK(FAM)C conjugated to DSPE-PEG3400-Maleimide and displayed on liposomes) (peptide)
peptide: TALPRLNGGSK(FAM)C([maleimide-PEG3400-DSPE])-NH2
modifications: also: displayed on liposomes
notes: Control peptide, tested only as a display on liposomes
Regarding B2, the binding result in series [6] was “no binding (tested: 0.3 nM)”; in series [7], “no binding”.
